Measurements reported in US12467929.

Assays:
[1] = biological target: recombinant UBE3A protein (Homo sapiens (Human)) (UniProt Q05086); assay: 3-step Simoa; capture GTX; UBE3A 31.3 ng/ml
[2] = biological target: recombinant UBE3A protein (Homo sapiens (Human)) (UniProt Q05086); assay: 3-step Simoa; capture GTX; UBE3A 1.95 ng/ml
[3] = biological target: recombinant UBE3A protein (Homo sapiens (Human)) (UniProt Q05086); assay: Simoa; capture GTX, no helper beads; 3E5 0.1 ug/ml; UBE3A 4.00 ng/ml
[4] = biological target: recombinant UBE3A protein (Homo sapiens (Human)) (UniProt Q05086); assay: Simoa; capture GTX; SBG 150 pm; UBE3A 0.0320 ng/ml
[5] = biological target: recombinant UBE3A protein (Homo sapiens (Human)) (UniProt Q05086); assay: Simoa; capture GTX; 3E5 0.4 ug/ml; UBE3A 0.160 ng/ml
[6] = biological target: recombinant UBE3A protein (Homo sapiens (Human)) (UniProt Q05086); assay: Simoa; capture GTX; SBG 100 pm; UBE3A 0.0320 ng/ml
[7] = biological target: recombinant UBE3A protein (Homo sapiens (Human)) (UniProt Q05086); assay: Simoa; capture GTX + helper beads; 3E5 0.4 ug/ml; UBE3A 0.0320 ng/ml
[8] = biological target: recombinant UBE3A protein (Homo sapiens (Human)) (UniProt Q05086); assay: Simoa; capture GTX; SBG 100 pm; UBE3A 0.160 ng/ml
[9] = biological target: recombinant UBE3A protein (Homo sapiens (Human)) (UniProt Q05086); assay: Simoa head-to-head, Table 10; capture MS 2F6; UBE3A 500 ng/ml
[10] = biological target: recombinant UBE3A protein (Homo sapiens (Human)) (UniProt Q05086); assay: Simoa; capture GTX, no helper beads; 3E5 0.2 ug/ml; UBE3A 0.0320 ng/ml
[11] = biological target: recombinant UBE3A protein (Homo sapiens (Human)) (UniProt Q05086); assay: Simoa; capture GTX; 3E5 0.2 ug/ml; UBE3A 0.0320 ng/ml
[12] = biological target: recombinant UBE3A protein (Homo sapiens (Human)) (UniProt Q05086); assay: Simoa; capture GTX + helper beads; 3E5 0.2 ug/ml; UBE3A 0.160 ng/ml
[13] = biological target: recombinant UBE3A protein (Homo sapiens (Human)) (UniProt Q05086); assay: Simoa; capture GTX; SBG 100 pm; UBE3A 20.0 ng/ml
[14] = biological target: recombinant UBE3A protein (Homo sapiens (Human)) (UniProt Q05086); assay: Simoa; capture GTX; SBG 150 pm; UBE3A 0.00640 ng/ml
[15] = biological target: recombinant UBE3A protein (Homo sapiens (Human)) (UniProt Q05086); assay: Simoa; capture GTX + helper beads; 3E5 0.2 ug/ml; UBE3A 0.800 ng/ml
[16] = biological target: recombinant UBE3A protein (Homo sapiens (Human)) (UniProt Q05086); assay: Simoa; capture GTX, no helper beads; 3E5 0.2 ug/ml; UBE3A 0.00640 ng/ml
[17] = biological target: recombinant UBE3A protein (Homo sapiens (Human)) (UniProt Q05086); assay: Simoa; capture GTX; 3E5 0.8 ug/ml; UBE3A 0.00128 ng/ml
[18] = biological target: recombinant UBE3A protein (Homo sapiens (Human)) (UniProt Q05086); assay: Simoa; capture GTX + helper beads; 3E5 0.4 ug/ml; UBE3A 0.800 ng/ml
[19] = biological target: recombinant UBE3A protein (Homo sapiens (Human)) (UniProt Q05086); assay: Simoa head-to-head, Table 11; capture MS 2F6; UBE3A 20.0 ng/ml
[20] = biological target: recombinant UBE3A protein (Homo sapiens (Human)) (UniProt Q05086); assay: Simoa; capture GTX; 3E5 0.1 ug/ml; UBE3A 20.0 ng/ml

Sequence of UniProt Q05086 (Q05086 whole entry): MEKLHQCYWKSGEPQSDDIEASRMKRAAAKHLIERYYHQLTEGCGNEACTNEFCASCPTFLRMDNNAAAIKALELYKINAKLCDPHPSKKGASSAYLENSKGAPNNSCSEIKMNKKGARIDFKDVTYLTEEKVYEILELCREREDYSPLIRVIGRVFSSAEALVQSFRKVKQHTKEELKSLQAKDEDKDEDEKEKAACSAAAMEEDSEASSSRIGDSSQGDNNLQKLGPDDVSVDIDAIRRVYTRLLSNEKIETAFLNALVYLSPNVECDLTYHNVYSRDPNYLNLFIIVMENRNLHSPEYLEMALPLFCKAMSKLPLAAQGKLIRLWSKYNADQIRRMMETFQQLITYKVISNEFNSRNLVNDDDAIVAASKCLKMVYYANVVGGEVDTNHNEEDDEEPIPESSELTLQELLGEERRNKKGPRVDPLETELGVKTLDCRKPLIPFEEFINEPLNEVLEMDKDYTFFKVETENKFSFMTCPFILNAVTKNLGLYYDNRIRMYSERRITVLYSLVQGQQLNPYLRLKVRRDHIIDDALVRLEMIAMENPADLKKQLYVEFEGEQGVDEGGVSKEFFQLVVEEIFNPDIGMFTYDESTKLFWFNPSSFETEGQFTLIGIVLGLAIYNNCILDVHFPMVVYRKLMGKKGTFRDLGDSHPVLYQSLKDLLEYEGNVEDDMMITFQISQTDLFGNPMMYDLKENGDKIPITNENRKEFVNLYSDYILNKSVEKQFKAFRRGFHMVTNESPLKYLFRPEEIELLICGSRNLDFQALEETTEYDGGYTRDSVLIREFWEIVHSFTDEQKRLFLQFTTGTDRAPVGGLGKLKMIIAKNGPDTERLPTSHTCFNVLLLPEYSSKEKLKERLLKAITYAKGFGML

NB500-240 (Novus) (antibody)
AEB1 [1]: 0.0425 | AEB2 [1]: 0.046 | Ave AEB [1]: 0.0443 | Signal to Background [1]: 20.3 | AEB1 [2]: 0.0052 | AEB2 [2]: 0.0042 | Ave AEB [2]: 0.0047 | Signal to Background [2]: 1.44

anti-UBE3A antibody 3E5 (SAB1404508-100 ug, Millipore-Sigma)
AEB1 [3]: 0.607 | AEB2 [3]: 0.603 | Average AEB [3]: 0.605 | Signal to Background [3]: 106 | AEB1 [4]: 0.0262 | AEB2 [4]: 0.0285 | AEB3 [4]: 0.0282 | Average AEB [4]: 0.0276 | Signal to Background [4]: 2.08 | AEB1 [5]: 0.172 | AEB2 [5]: 0.165 | AEB3 [5]: 0.174 | Average AEB [5]: 0.171 | Signal to Background [5]: 2.72 | AEB1 [6]: 0.0199 | AEB2 [6]: 0.0201 | AEB3 [6]: 0.0192 | Average AEB [6]: 0.0197 | Signal to Background [6]: 2.35 | AEB1 [7]: 0.037 | AEB2 [7]: 0.0369 | Average AEB [7]: 0.037 | Signal to Background [7]: 1.89 | AEB1 [8]: 0.0582 | AEB2 [8]: 0.0586 | AEB3 [8]: 0.0574 | Average AEB [8]: 0.0581 | Signal to Background [8]: 6.93 | AEB1 [9]: 11 | AEB2 [9]: 10.9 | Ave AEB [9]: 10.9 | Signal to Background [9]: 809 | AEB1 [10]: 0.0229 | AEB2 [10]: 0.0244 | Average AEB [10]: 0.0236 | Signal to Background [10]: 2.44 | AEB1 [11]: 0.0619 | AEB2 [11]: 0.0621 | AEB3 [11]: 0.0587 | Average AEB [11]: 0.0609 | Signal to Background [11]: 1.55 | AEB1 [12]: 0.0751 | AEB2 [12]: 0.0703 | Average AEB [12]: 0.0727 | Signal to Background [12]: 7.51 | AEB1 [13]: 3.96 | AEB2 [13]: 3.97 | AEB3 [13]: 4.1 | Average AEB [13]: 4.01 | Signal to Background [13]: 478 | AEB1 [14]: 0.0136 | AEB2 [14]: 0.0149 | AEB3 [14]: 0.014 | Average AEB [14]: 0.0142 | Signal to Background [14]: 1.07 | AEB1 [15]: 0.252 | AEB2 [15]: 0.261 | Average AEB [15]: 0.257 | Signal to Background [15]: 26.5 | AEB2 [16]: 0.012 | Average AEB [16]: 0.012 | Signal to Background [16]: 1.24 | AEB1 [17]: 0.109 | AEB2 [17]: 0.109 | AEB3 [17]: 0.112 | Average AEB [17]: 0.11 | Signal to Background [17]: 0.897 | AEB1 [18]: 0.341 | AEB2 [18]: 0.333 | Average AEB [18]: 0.337 | Signal to Background [18]: 17.2 | AEB1 [19]: 0.352 | AEB2 [19]: 0.348 | Ave AEB [19]: 0.35 | Signal to Background [19]: 92.5 | AEB1 [20]: 5.11 | AEB2 [20]: 5.62 | AEB3 [20]: 5.2 | Average AEB [20]: 5.31 | Signal to Background [20]: 276
